B1: Photosystem II lipoprotein Psb27, P74367 (parent)
chain: MSFLKNQLSRLLALILVVAIGLTACDSGTGLTGNYSQDTLTVIATLREAIDLPQDAPNRQEVQDTARGQINDYISRYRRKGDAGGLKSFTTMQTALNSLAGYYTSYGARPIPEKLKKRLQLEFTQAERSIERGV

Variants of: B1
Details: Synechocystis sp. (strain ATCC 27184 / PCC 6803 / Kazusa); pH 7; Thermal; CD; Sodium phosphate Tris HCl 20 mM; transition: 2; reversible: Yes; structure 2KMF; whole UniProt chain shown

Which Tm does the source give for R78E here?
Its Tm is 57 °C.

With D38A as the variant, how does the Tm read?
The Tm was 41.9 °C.

For C25S, which Tm is on record?
The Tm was 58.2 °C.

With P110G I111G P112G as the variant, how does the Tm read?
Its Tm is 43.3 °C.

With E127R as the variant, how does the Tm read?
Its Tm is 56.1 °C.

With Y102H as the variant, how does the Tm read?
The Tm was 56.3 °C.

With R118E as the variant, how does the Tm read?
The Tm was 56.6 °C.

With R132E as the variant, how does the Tm read?
Its Tm is 60.2 °C.

Which Tm does the source give for E122R here?
Its Tm is 54.4 °C.

With P110G P112G as the variant, how does the Tm read?
Its Tm is 49.2 °C.
